Data: the domain aggregation screens of Martell et al. (2025)

Assay: soluble fraction after stress (log2 fold change); higher = more stays soluble; pooled small domains, quantitative proteomics
Conditions: stress: 75 degC
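Also: 20 min heating vs room temperature control held 20 min.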

Sequence | soluble fraction (log2)
HMQLSASQQQILNHAAVNTDGKLVWFPETLKGGARKKVLDSLFSRALITTDGTHWFVAAEGYEALGIP | -1.06
HMQLTDLSALEAIIKEVLAANPKSVEDYKSGKEKAFGSLVGQAMKATKGKANPETVNSLLRKNLN | 0.729
HMQLTDSDFTRLYTYVKNSYGIDLSKKKQLISSRLTNMLIQQGYRDFTQYTDEIISGKNPEMVSAMLNRLT | -1.33
HMQLTPAQHAILAKAIHSSDGKIEWFPDNVKGGARKKVLEGMFNRALITPDGEGWRIAAEGYDALGMPRP | -0.097
HMQLVGSSAAVLIPAPAGGLGKIRLEFRGQTIDLIAKATDGGALIEGGAVTIVDVRDGQADVSV | -0.939
HMQMMDATLKIPPSMGKLRGTLYELNSVTSEDVDENGQLALHVRLSSVDWQRLKKRFDSNLDELIVQKN | -0.219
HMQMPLTMATMGEVNKIVKVGGNEETRRFLANLGFVAGAEVVVLSKIGGNVIVNVKDSRVAVNEDMARHIM | -1.19
HMQMSDTAAIGKIVDEVFAENPAALEDYAKGKTNVVDWLTGQVMKKSRGQANPGIASELVQKRLADF | 0.0922
HMQMSDTGAIEAMVKEALDENPQAIEDFKNGKGKALGFLMGQVMKKSKGQANGGIVNKLIKEELQKRIG | 0.292
HMQMTKSEFLDALRRALNGNMAAASVDDNIRFYDSYFYTEETKGRSEAEILSELGDPRILARTLIDAAD | -0.0328
HMQNEIQQLAIDLIARAHKSGASDIHIVDTGTYTRIKFRVLGLLREDSQMEAETGRQMISTIYGILG | -0.0698
HMQNEKLSYFVTETIVTERADLFITKKFPQFSRSQIQKLINSGNITINSNPIKASTEIINKDNIEITIPV | -2.15
HMQNESGLFTMSDLWEAGLMGSENASRKRAAVGAFLGIGFGNGKQFLKRLNHFGVTKEEWESALEQLGE | -1.18
HMQNEVMPYSTFLSEVNSGNVTKVKIDHEQLTGTLKSGKQFTTYILDAATLPSIVAEKGVEVEVVPP | 0.506
HMQNGNYVVQRQDSLWSIAARISGQTHQPIGEVMNHIKALNEHAFVGGNVNRLRTGTNLNLG | -0.224
HMQNKRQEQLLALLAERRDYMTSRQLAEILQVSDRTIRSDVEAINRRSSPPPIESNVRQGYRLNPEA | -0.142
HMQNNIEFTVLEEDAQKRLDVLLSEKTALSRSASASLIEEGGVLVNGRKEPKKYKPVRGEIITAILPE | 0.504
HMQNNTIAFSKFLQEVDNGRVVQVEIQGNNINGILSDGSKFNTYSPNYPALVEKLSEKNVNIVASPV | 0.0941
HMQNPDHLLALAAAAQAAIELGRPDEAEAYYRHLVEVYGVEMASQKPEYLDHSGITNDLRNVAEGFLVG | -1.06
HMQNRIVNTTQGLAADKRGLLVADETGHTTRPGIFASGDVVNGARTVVEAVAHSKIVAESMHQYMQ | 0.654
HMQNSLKAFRVKRGLTTSALSRLTNGEFSTSRISNYETGVRALTIDAAKKLAPHLGASPAQLLNL | -0.694
HMQNSPVFAASDIEDIRVGMTVEHQRFGQGRVMSIEGNGPNKKTTVLFEGIGEKQLLLQYAKLKIV | -0.664
HMQNYLLFEEAKNIVNTLNLTNEKDWSEFIKKDFTYKNQIPIFPNQYYKHKGWVDWNDWLGINK | -1.35
HMQNYTTIIGVIELRLNDISYDNVRKRYHIGRSGITLIMDRYRDSGLSLEDLKQMTPEKVVDLFYPR | -2.55
HMQPAALEAQVIKLVRLHAPIKARQLATILANEFGQHVDRSTVNSLLYQLRAQGKVAQNAAYQWSLT | -2.01
HMQPEKELAPLIGQRVSVRLHDGDGGYRDLLGELESPDSIRKKNGEIAFFDPAKIAALRVVV | 0.0667

Sequence | soluble fraction (log2)
HMQPGDRVDALIVGVSGEHVFLDVGGKSEGVMAAAELRNEAGELSAAEGDRVQVYLLSNRNGELIFTA | 0.205
HMQPHLSADEEHLLKILGSDTMHIDALVKRSTLETSNALAALAFLEMKGLVKNIGNMHYIRTYR | -0.552
HMQPIAVHIGTENPMKSLSDLSVVRAQFTSGGRVIGSVAVLGPTRMQYSRIVGMMRFMQQRLDLLLKG | -0.0629
HMQPKKLNMYYDYVRQLLESHPYLSAAQIEDRLKEEFTELPMVHSKTVFNFVENIRLQHGINKHA | -0.219
HMQPLRQGDFVTSEVVKVQDGTAVLRTAQGTLLSASLTGNLGLLPGDRVETVVVEASPGRFVLRVLDIIR | -0.747
HMQPPLTPRELGVLQWAAEGKTTRDTSAILQIHQRTVEMHLKSAREKLDALNTTHAVARALAHGFILPPS | -0.0091
HMQPPVDGNEIMEIFGIKGSPVIGVIKSTIKNAILDGIIAPNDREAALELMFRIADENGLKPVVTQTQ | -0.0513
HMQPRYMLIKTAILDAIERGEMKPGSQVPSENQLAQQHNVSRMTARRALSEMVDDGILMRSQGIGTFVSD | -0.228
HMQPSFFEMIRMVESYIKQHFENVGNEFPEIARAIYYGIEEERNIYGTASREDMEELLDEGIPILPVP | -0.914
HMQPVEHLPTTDPLTTSAASEHERYEKVRWWLEEMQRTYETGDEVRAERIRLSLIEQMYKWEGE | -0.513
HMQPYTYNPNFLSDYRAYSLGIPLEAYDKLVQFRASGSFVNSMSDFQKITGVSDSLLAVLHSKFRYPK | -0.826
HMQQELEEMESGNLVRTAIDSLPINQRTAFILSAYEELPIKEIASIMNRSEGAVEQLLQRAKMNLKKKIK | 0.233
HMQQLTDRELEVLRLLAAGLSNNKIGEKLYISATTAKFHVSNIMRKLEVSRRAEAVYAASKRGL | -2.26
HMQQLTQRELTLLRLLANGYNNRQIAEQLQLAESTVKNNLSALFQKIGVRDRTQAVLFAISQGLVP | -1.04
HMQQNDMTELRALAEKIISENDSVINDYKSGQGSALQFLIGQAMKETKGSANPQVISEIFTDLL | -0.354
HMQQPIPGEAYLTRRPGSDHFQIAFTIDGHRVRESSGTSDKVAAAALAQKRYEEVWREIKLGEK | -0.0824
HMQQPVAYSEFVQSVNDRQIREAQIQGERIVATDNNGNRMTVIWPENDTKLLDELVQNGVLTSIQE | 0.116
HMQQVDWGSVFGDFGTMFKDQLQPTIDRLRRMAQSDTFRQSSLEEQQILYSLIEKLERSGTA | -1.89
HMQQVIEGLDSDRDFITVPEAIALFAVGRQTLYHYIRSGKIPSVNLGQRLTRLSKKQLGELFPLR | -1.97
HMQRGRTFSIVLNWKGRLLSTQMFFPQFTRPTKEQVTFEINKVYPGAMVYYYNPIEKDPSQPLV | -2.26
HMQRLSRREIEVLHWIAEGKSDWQIGQILSISAKTVNYHTENLKRKFGVATRMQAVVSAIKQGAFVPGE | -4.11
HMQRVSDKVAAQLRVLVQEQQLKPGDRLPAERALAVQLGVSRTALREAIAQLASQGLLTARVGGGTYVAEP | -1.08
HMQRYVVDENLKLDKKDINHIINVMRLNVNDQIKLINNGTIYDAIITKIEKNNVLYEIIKKEESK | -0.661
HMQSANQLIKLSRKRKGLTQQELADQAGVSLRTVQRIEKGTEEISGFSLKQISQILEIPLEQLIM | -0.652
HMQSLDGPSRAAIVLMAIGPDVAGELIKSFSPAEAQKVSSLLATVRSLDREVMIEVLDSFKNITEH | -0.339
HMQSLPFSFAKRHGVLLKSINHLHGEAVYRIGANPLSLSEVQRYAGVPLKLSSITVEKFDRLLQETYEHD | -1.17

Sequence | soluble fraction (log2)
HMQSLSDQVFFYLKERIINNEMVPGSIISIEKLTSEFGISNTPVREAIVRLAGLDLVTIHRNKNITVS | -2.19
HMQSMSADDWSEKARVLMSAGIIVMGQEAKEKILNLKSLVPLIEAASASNVSMIDSRTFDELLMIIP | -2.46
HMQSREISYSEFVTAVEAGDVRNVTLDGEQVRFRRADGSDYVTIRPEDAEVTKLLMANDIPVRAEP | 0.116
HMQSRRTPASLVERVRQLNGQYQDKEIAELLNREGIKTAHGNEFNAKRIEMIRRHNGISKHSAQ | -0.075
HMQSSTAISFNQFQKSWLSNNIKSFQLGEDKMTVRGSLKNGTQYETIVPSERLFQFIGQHPKDGQVQEMY | 0.0453
HMQSTEQVSVTVTIPPGGELRIDSDTFRVLLNGENVLDKQSGDWLMLSRDLLYLDIESAIGNGLSGNLIYT | 0.486
HMQSVEELLDAIGDERLLHILLEADRKTLQIVVLKMMGYAPKEIGSHIGMPEQTVYTKLRRLREKIKKI | -1.65
HMQSYHVGDKVTIKNSASHWATGQSIYNGVKGHTYKIIQTNGHKLLLDQVISWINDGDVYKAGS | -0.497
HMQSYSTIIGVIELRLSGIGYRTTKARYGIGNSTVTLIMNRFKETGFTLDDLKTMEPTKVEALFYPP | -1.36
HMQSYSYYDFQKALQNKTVESVIIEPDKTVPTGTLQIQLKGDTKEELNVSDVTEVEELLQSYDVDYKLRSV | 0.0732
HMQTASVRFADGQLEVKQKGLQRVSVYSLNGMTVANKAVQGQDYVTISLPRAAYIVKITTQNGSFTKVI | -2.18
HMQTGRREALEAQLRETGGEAMLARLREIDPEAAARLHPADEKRVIRALEVYEETGKTITQHNLETKAVPP | 0.309
HMQTKEVDYGTFMSMIDEKNIGTVEIGDSQIVFTDKDNKNLYETGVMNDPDLAQRLHDAGATFSS | 0.128
HMQTLQTTSLRVSENQLFILDQQALPQEKRWLAADNVALLVDHIHTLRVRGAPLIGLSASLLLALLAGRLT | 0.0717
HMQTMNKTNISNFEKYLNSGDVSEVIVVRNKSSVRVTLTPEALRSSEHQAVVGKNILGQENIKGPHYQFEV | -0.0414
HMQTPPGRYRHYKGGLYEVIATARHSETLEPMTVYRALYGEQGLWVRPAAMFAEDITLEGVRQPRFARI | -2.39
HMQTRIDISDAVLQWVVRKTQFAALPPKAAAHLTKWVRGEKKPTFNQLEEVSKATGIPLGYFFLQQPPHE | -2.19
HMQTTEDMEINAKVDEYLREMYLWNDEYKTLNLDHNKGYEDFFYDALGSMTTNTLDKKTYVGSDGKTYYNL | -0.205
HMQTYTYYIAKNDISIGQKITPDMLIEKQVNLGDSKDRYLSREQLETGKYIAVRQIPAGELISSASANE | 0.102
HMQVAPQVERLLRVMGNETLSLSDIMGRMGLSDKKNFRESYLVPALRSAVIEMTIPDKPNSSLQKYRRIHE | -0.634
HMQVEEKNKKIELYIEGKIKELESNLMYVPNENKKKLLMAFMNRNEDIEIIKTKIDTIFNKSVAAYKENM | -0.302
HMQVIDNHWRPSRDALDILLRDGISEHFIEDAIPEFILYWRERGTQDSNWNSRFLQHIRLQWARYTNAV | -1.67
HMQVPDLYRTLGVGRDATTEAIEAAYVGWQARLSAGEPISTQEWERLRYAHEVLSNPQRRSLYDSLVAET | -0.0937
HMQVPVNVSMEILDWVIAHIKIDALPNQIREYLNLWVNGEKEPTFNQVEKVSKATGIPLGYFFLQTPPIED | -1.79
